Data from PMC7054387.

How the values were obtained:
[1] = biological target: T1, H-NS-His in cell lysate (Escherichia coli K12 MG1655?) (UniProt P0ACF8); test: EMSA + anti-His Western; settings: 0.01 mM EDTA, 0.01 mM DTT, 3.3 mM imidazole, 40 min at 30°C
T1 sequence: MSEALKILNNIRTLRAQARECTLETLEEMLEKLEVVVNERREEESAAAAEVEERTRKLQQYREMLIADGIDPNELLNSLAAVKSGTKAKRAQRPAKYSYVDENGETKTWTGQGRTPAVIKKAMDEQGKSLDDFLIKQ

[2] = biological target: T2, H-NS (purified recombinant) (Escherichia coli K12 MG1655?) (UniProt P0ACF8); test: EMSA; settings: 1 mM Mg2+, EMSA: 0.5 pmol DNA in 20 µl 5 mM Tris-HCl pH 8.0, 1 mM MgCl2, 50 mM NaCl, 0.01 mM EDTA, 0.01 mM DTT, 3.3 mM imidazole, 40 min at 30°C, 5% PAAG, lysate series …
T2 sequence: T1 sequence

[3] = n=6, EMSA: 0.5 pmol DNA in 20 µl 5 mM Tris-HCl pH 8.0, 1 mM MgCl2, 50 mM NaCl, 5% …, lysate series wi

Row | Sequence | binding signal (% of initial fragment) [1, 3] | binding signal (% of initial fragment) ([2]; n=6) | further results
1 | AGATCTGCAAGTAAAAATGATACTCTTTATATTTAAATTCAAACGGTTGACATATATATAGCACGAGGTTTCATGTGCGTAGTAGTGAGTTTATGTTATTAAACAGCTTAGTATGCGTTGGAAAGTGAAGCTTTGTAATAAGTTAGAATAAGACGCGACATACATATAACAATTTAATCTTAAATGTAGTCTATTAGCATTTGCAAACAAACAATTTGCGTATATACTATAAATGCACATCATCCTGATTGTGATTGTGTATTTAACTGGTTCTTATATGACTACTACCAACTAGGTTTAGTCTTATGATAGGTGCAGGATGGATTATGTTTACTCCGTAGTTTCCATCTGTCTATCATTAGATTTAATTATGAACAGGAGAGTTATCCTGTTCAAAAAAAATTCATTGTTTATTGTAAGCGACAAATCTAGA (double strand) [appY promoter, activated mutant (positive selection cycle 9)] | 97.2 | 102 | –
2 | AGATCTGCAAGTAAAAATGATACTCTTTTTATATTAAATTCAAACGGTTGACATATATATAGCAAGAGGTTTCAGGTGCGTTGTAGCGAGTTTATGTTTATAAAAAGCATAGTAAGCGTTGAAAAATGTAACTTTGAAATAAGTTAGAATAAAAAACAACATACATATATTAATTTAATCCTAAATGAAATTTATTAAAATCTGCAAACTATAATTTTGTGTATAAAAATATAAATGCACATCATCCTGATTATGATTGTGTATTTAATTGGTTGTTATTTGACTACTATCAACTTGTTTTAATTTTATGATAGGTGCAAGGTGGATTATGTTTGATCCGTAGTTTTCATCTGTCAATCATTTGATTTAATTATAAACAGGAGAGTTATCTCGTTCAAAAAAATTCATTGTTTATTGTAAGCGACAAATCTAGA (double strand) | – | – | binding signal (% of initial fragment) ([1]; p=0.15, n=6, EMSA: 0.5 pmol DNA in 20 µl 5 mM Tris-HCl pH 8.0, 1 mM MgCl2, 50 mM NaCl, 5% PAAG, lysate series …): 117; binding signal (% of initial fragment) ([2]; p=0.78, n=6): 110
3 | AGATCTTCCTCGGAGAAACACTGACACCCATACAGCTACTGGCGCTCGGCGCTATCATCGCCACTTCAATGGGGTCTACGCTGACAGTACGCAAAGAGAGCAAAATAAAAGAATTAGACATTAATTAAATTTACATTTCTGCATGGTTATGCATAACCATGCAGAATTTCTCGCTACTTTTCCTCTACACCGTCTTTATATATCGAATTATGCAAAAGCATATTTATTCCGAAAATTCCTGGCGAGCAGATAAATAAGAATTGTTCTTATCAATATATCTAACTCATTGAATCTTTATTAGTTTTGTTTTTCACGCTTGTTACCACTATTAGTGTGATAGGAACAGCCAGAATTGCGGAACACATAGCCGGTGCTATACTTAGTCTCGTTAATTACTGGGACATAACATCTAGA (double strand) [dps promoter, up-regulated mutant (positive selection)] | – | 100 | binding signal (% of initial fragment) ([1]; p=0.537, n=6, EMSA: 0.5 pmol DNA in 20 µl 5 mM Tris-HCl pH 8.0, 1 mM MgCl2, 50 mM NaCl, 5% PAAG, lysate series …): 129
4 | AGATCTTCCTCGGAGAAACACTGACACCCATACAGCTACTGGCGCTCGGCGCTATCATCGCCGCTTCAATGGGGTCTACGCAGACAGTACGCAAAGAGAGCAAAATAAAAGAATTAGACATTAATTAAATTTACATTTCTGCATGGTTATGCATAACCTTGCAGAATTTCTCGCTACTTTTCCCCTACACCGTCTTTATATATCGAATTATGCAAAAGCATATTTATTCCGAAAATTCCTGGCGAGCAGATAAATAAGAATTGTTCTTATCAATATATCTAACTCATTGAATCTTTATTAGTTGTGTTTTTCACGCTTGTTACCACTATTAGTGTGATAGGAACAGCCAGAATAGCGGAACACATAGCCGGTGCTATACATAGTCTCGTTAATTACTGGGACATAACATCTAGA (double strand) [dps promoter, down-regulated mutant (negative selection)] | 113 | – | binding signal (% of initial fragment) ([2]; n=6, not significant): 117
